Like-named read-outs stand apart in the source and are kept apart here.
Columns and labels:
[1] = target: T1, ZBP1 KH3-KH4 (ZBP1KH34) (Gallus gallus, UniProt O42254 404-561); assay: EMSA
[2] = target: T1, ZBP1 KH3-KH4 (ZBP1KH34); assay: EMSA; remark: listed apart in the source

T1 sequence (O42254 404-561): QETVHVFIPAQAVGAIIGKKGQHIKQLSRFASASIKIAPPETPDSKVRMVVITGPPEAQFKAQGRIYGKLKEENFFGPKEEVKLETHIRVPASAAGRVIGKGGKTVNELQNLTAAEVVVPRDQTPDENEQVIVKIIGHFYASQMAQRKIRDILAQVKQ

Binder | binding result [1] | binding result [2]
ACCGGACUGUUACCAACACCCACACCCC (ssRNA) [A oligonucleotide: chicken beta-actin zipcode unmodified] | binds | 
ACCGGACUGUUACCAACACCCACACCCC (ssRNA, m6A at position 6) [B oligonucleotide: zipcode m6A site 1202 (GGm6ACU)] |  | binds

Reference: publication PMC10187669
